Measured values published in patent US20240277868.

Test system: synthetic TNF-derived myristoylated peptide

For “purified recombinant His-tagged wild type SIRT6”, the KmPEP was 61.1 µM.
